Among the targets are protein kinase PIM-1 (human, UniProt P11309 1-313); protein kinase PIM-2 (human, UniProt Q9P1W9 1-311); protein kinase PIM-3 (human, UniProt Q86V86 1-326).
Common to all, as to assay: fluorescence polarisation + other: time-gated luminescence intensity (TGLI); binding/displacement assay in solution with the probes ARC-1451, ARC-1188 or ARC-583; 20 min at 30 °C; 50 mM HEPES pH 7.4, 150 mM NaCl, 5 mM dithiothreitol, 0.5 mg/mL BSA, 0.005% Tween-20; N = 2
Holding throughout (settings): both partners purified

For experiment [1], the target named is catalytic subunit α of protein kinase A (human, UniProt P17612 1-351).

Square brackets hold non-standard residues; d marks the D form. Ends that are not written are not given here.

protein kinase PIM-1, sequence (P11309 whole entry): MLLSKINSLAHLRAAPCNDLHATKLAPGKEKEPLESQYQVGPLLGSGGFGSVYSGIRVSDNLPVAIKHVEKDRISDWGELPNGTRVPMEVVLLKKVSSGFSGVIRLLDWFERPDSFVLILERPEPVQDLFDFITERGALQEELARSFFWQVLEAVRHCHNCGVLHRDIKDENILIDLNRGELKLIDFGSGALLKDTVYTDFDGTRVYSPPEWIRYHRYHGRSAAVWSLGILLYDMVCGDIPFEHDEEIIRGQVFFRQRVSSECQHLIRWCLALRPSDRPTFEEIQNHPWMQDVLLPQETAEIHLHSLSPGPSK
protein kinase PIM-2, sequence (Q9P1W9 whole entry): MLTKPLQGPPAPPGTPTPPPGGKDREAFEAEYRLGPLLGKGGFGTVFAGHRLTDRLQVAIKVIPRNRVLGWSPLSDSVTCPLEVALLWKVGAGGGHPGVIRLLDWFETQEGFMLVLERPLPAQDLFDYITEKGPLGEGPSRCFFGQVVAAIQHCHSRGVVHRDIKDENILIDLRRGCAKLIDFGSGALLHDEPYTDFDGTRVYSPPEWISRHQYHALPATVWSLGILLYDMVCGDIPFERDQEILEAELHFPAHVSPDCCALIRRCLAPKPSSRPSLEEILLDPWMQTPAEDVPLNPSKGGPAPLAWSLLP

B1: PIM peptide, (D-Arg)2-Gly-D-Arg-D-Lys-NH2 (peptide)
peptide: [dR][dR]G[dR][dK]-NH2
modifications: N-terminus assumed
SMILES: N=C(N)NCCC[C@@H](N)C(=O)N[C@H](CCCNC(=N)N)C(=O)NCC(=O)N[C@H](CCCNC(=N)N)C(=O)N[C@H](CCCCN)C(N)=O
notes: printed in three-letter code as (D-Arg)2-Gly-D-Arg-D-Lys-NH2; All chiral residues are D-amino acids; This is the peptide part of compounds 1-5, without the adenosine analogue moiety and the linker; also called designed peptide mimetic moiety of compounds 1-5; source: synthetic peptide (Fmoc solid-phase synthesis on Rink amide resin, HPLC purified)
As for B1, the Kd in the experiment with protein kinase PIM-1 was over 11.5 µM; with protein kinase PIM-2, over 46 µM; with protein kinase PIM-3, over 16.4 µM; in experiment [1], over 89 µM.

The record behind these values is publication PMC8307404, “Crystal Structure-Guided Design of Bisubstrate Inhibitors and Photoluminescent Probes for Protein Kinases of the PIM Family” (Molecules, 2021).
